From the supplement of paper PMC9112550, “Optimization of the antimicrobial peptide Bac7 by deep mutational scanning” (BMC Biology, 2022)

Tested on: Escherichia coli TOP10
Assay: shrunken log2 fold change of peptide-encoding DNA abundance (4.5 h post-induction vs induction); higher = less antimicrobial activity (less host growth inhibition)
Conditions: time post-induction: 4.5 h; library: site-saturation at positions 5, 18, 19, 20
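Also: peptides expressed intracellularly from a pBAD plasmid library in pooled LB shake-flask culture, induced with 0.3% L-arabinose, DNA abundance read by NGS, three biological replicates, DESeq2 with apeglm shrinkage.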

RRIRCRPPRLPRPRPRPGVLPRP
shrunken log2 fold change: 0.121

RRIRERPPRLPRPRPRPEWEPRP
shrunken log2 fold change: -0.0115

RRIRCRPPRLPRPRPRPSMAPRP
shrunken log2 fold change: -0.224

RRIRVRPPRLPRPRPRPIDMPRP
shrunken log2 fold change: -0.0698

RRIRHRPPRLPRPRPRPKDKPRP
shrunken log2 fold change: -0.23

RRIRDRPPRLPRPRPRPKWRPRP
shrunken log2 fold change: 0.344

RRIRFRPPRLPRPRPRPWGMPRP
shrunken log2 fold change: -0.171

RRIRRRPPRLPRPRPRPKTFPRP
shrunken log2 fold change: -0.0358

RRIRCRPPRLPRPRPRPCLSPRP
shrunken log2 fold change: -0.381

RRIRARPPRLPRPRPRPIPVPRP
shrunken log2 fold change: 0.161

RRIRQRPPRLPRPRPRPPTMPRP
shrunken log2 fold change: 0.29

RRIRDRPPRLPRPRPRPVQSPRP
shrunken log2 fold change: -0.0116

RRIRMRPPRLPRPRPRPAIAPRP
shrunken log2 fold change: 1.25

RRIRSRPPRLPRPRPRPMVKPRP
shrunken log2 fold change: -0.0162

RRIRFRPPRLPRPRPRPGAFPRP
shrunken log2 fold change: -0.162

RRIRKRPPRLPRPRPRPWPSPRP
shrunken log2 fold change: 0.0175

RRIRGRPPRLPRPRPRPILEPRP
shrunken log2 fold change: 0.229

RRIRRRPPRLPRPRPRPWKKPRP
shrunken log2 fold change: -0.0288

RRIRIRPPRLPRPRPRPRPTPRP
shrunken log2 fold change: 0.152

RRIRCRPPRLPRPRPRPFSHPRP
shrunken log2 fold change: -0.608

RRIRNRPPRLPRPRPRPNTLPRP
shrunken log2 fold change: -0.788

RRIRERPPRLPRPRPRPVCNPRP
shrunken log2 fold change: -0.12

RRIRHRPPRLPRPRPRPCVSPRP
shrunken log2 fold change: -0.311

RRIRLRPPRLPRPRPRPCTVPRP
shrunken log2 fold change: -0.0157

RRIRPRPPRLPRPRPRPYDMPRP
shrunken log2 fold change: -0.748

RRIRQRPPRLPRPRPRPNRTPRP
shrunken log2 fold change: 0.0639

RRIRMRPPRLPRPRPRPNLVPRP
shrunken log2 fold change: 0.288

RRIRVRPPRLPRPRPRPHECPRP
shrunken log2 fold change: -0.0944

RRIRVRPPRLPRPRPRPKLQPRP
shrunken log2 fold change: 0.32

RRIRRRPPRLPRPRPRPGFSPRP
shrunken log2 fold change: 0.131

RRIRGRPPRLPRPRPRPEQEPRP
shrunken log2 fold change: 0.0952

RRIRNRPPRLPRPRPRPFVQPRP
shrunken log2 fold change: -0.225

RRIRRRPPRLPRPRPRPCPHPRP
shrunken log2 fold change: -0.27

RRIRARPPRLPRPRPRPPKDPRP
shrunken log2 fold change: 1.78

RRIRKRPPRLPRPRPRPFGCPRP
shrunken log2 fold change: 0.0495

RRIRVRPPRLPRPRPRPTAIPRP
shrunken log2 fold change: 0.12

RRIRCRPPRLPRPRPRPFMQPRP
shrunken log2 fold change: -0.402

RRIRWRPPRLPRPRPRPWTPPRP
shrunken log2 fold change: 0.0119

RRIRVRPPRLPRPRPRPLAVPRP
shrunken log2 fold change: 0.33

RRIRYRPPRLPRPRPRPIHNPRP
shrunken log2 fold change: -0.438

RRIRNRPPRLPRPRPRPMVVPRP
shrunken log2 fold change: 0.00587

RRIRARPPRLPRPRPRPSSQPRP
shrunken log2 fold change: 0.144

RRIRARPPRLPRPRPRPNRFPRP
shrunken log2 fold change: 0.145

RRIRYRPPRLPRPRPRPELAPRP
shrunken log2 fold change: -0.0264

RRIRKRPPRLPRPRPRPVYQPRP
shrunken log2 fold change: 0.131

RRIRQRPPRLPRPRPRPFSFPRP
shrunken log2 fold change: -0.272

RRIRQRPPRLPRPRPRPSNEPRP
shrunken log2 fold change: -0.5

RRIRTRPPRLPRPRPRPMEIPRP
shrunken log2 fold change: -0.00196

RRIRDRPPRLPRPRPRPNNQPRP
shrunken log2 fold change: -0.513

RRIRDRPPRLPRPRPRPVNRPRP
shrunken log2 fold change: -0.131

RRIRARPPRLPRPRPRPCNEPRP
shrunken log2 fold change: -0.0554

RRIRKRPPRLPRPRPRPEWPPRP
shrunken log2 fold change: 0.273

RRIRLRPPRLPRPRPRPEYQPRP
shrunken log2 fold change: -0.0351

RRIRRRPPRLPRPRPRPERVPRP
shrunken log2 fold change: 0.125

RRIRIRPPRLPRPRPRPAGEPRP
shrunken log2 fold change: 0.171

RRIRYRPPRLPRPRPRPALFPRP
shrunken log2 fold change: -0.0533

RRIRKRPPRLPRPRPRPTVNPRP
shrunken log2 fold change: 0.402

RRIRIRPPRLPRPRPRPMTKPRP
shrunken log2 fold change: 0.0447

RRIRGRPPRLPRPRPRPRNRPRP
shrunken log2 fold change: 0.637

RRIRQRPPRLPRPRPRPAIAPRP
shrunken log2 fold change: 0.0382

RRIRTRPPRLPRPRPRPRKIPRP
shrunken log2 fold change: -0.0707

RRIRTRPPRLPRPRPRPQVSPRP
shrunken log2 fold change: -0.0699

RRIRWRPPRLPRPRPRPWFKPRP
shrunken log2 fold change: -0.123

RRIRQRPPRLPRPRPRPCSDPRP
shrunken log2 fold change: -0.136

RRIRQRPPRLPRPRPRPDGNPRP
shrunken log2 fold change: -0.26

RRIRFRPPRLPRPRPRPACGPRP
shrunken log2 fold change: 0.0797

RRIRDRPPRLPRPRPRPQAGPRP
shrunken log2 fold change: 0.152

RRIRARPPRLPRPRPRPAPDPRP
shrunken log2 fold change: 0.93

RRIRLRPPRLPRPRPRPRNLPRP
shrunken log2 fold change: -0.0507

RRIRCRPPRLPRPRPRPKPAPRP
shrunken log2 fold change: 0.288

RRIRNRPPRLPRPRPRPTISPRP
shrunken log2 fold change: -0.969

RRIRCRPPRLPRPRPRPKMWPRP
shrunken log2 fold change: 1.22

RRIRTRPPRLPRPRPRPHPQPRP
shrunken log2 fold change: -0.116

RRIRWRPPRLPRPRPRPLMCPRP
shrunken log2 fold change: 0.117

RRIRARPPRLPRPRPRPRTPPRP
shrunken log2 fold change: 0.636

RRIRARPPRLPRPRPRPRHFPRP
shrunken log2 fold change: 0.157

RRIRKRPPRLPRPRPRPGPWPRP
shrunken log2 fold change: 0.63

RRIRLRPPRLPRPRPRPTDPPRP
shrunken log2 fold change: 0.187

RRIRTRPPRLPRPRPRPQVKPRP
shrunken log2 fold change: -0.0733

RRIRHRPPRLPRPRPRPCPRPRP
shrunken log2 fold change: -0.28

RRIRQRPPRLPRPRPRPQYTPRP
shrunken log2 fold change: -0.249

RRIRLRPPRLPRPRPRPKMMPRP
shrunken log2 fold change: -0.167

RRIRDRPPRLPRPRPRPNHFPRP
shrunken log2 fold change: -0.189

RRIRHRPPRLPRPRPRPGWLPRP
shrunken log2 fold change: 0.0986

RRIRPRPPRLPRPRPRPSNKPRP
shrunken log2 fold change: -0.56

RRIRLRPPRLPRPRPRPFEFPRP
shrunken log2 fold change: -0.119

RRIRKRPPRLPRPRPRPSPGPRP
shrunken log2 fold change: 0.26

RRIRARPPRLPRPRPRPWMKPRP
shrunken log2 fold change: -0.172

RRIRMRPPRLPRPRPRPDGPPRP
shrunken log2 fold change: 0.0285

RRIRHRPPRLPRPRPRPVFPPRP
shrunken log2 fold change: 0.171

RRIRWRPPRLPRPRPRPNECPRP
shrunken log2 fold change: -0.437

RRIRPRPPRLPRPRPRPCSSPRP
shrunken log2 fold change: -0.467

RRIRTRPPRLPRPRPRPEKMPRP
shrunken log2 fold change: 0.171

RRIRRRPPRLPRPRPRPLHTPRP
shrunken log2 fold change: 0.321

RRIRERPPRLPRPRPRPAEEPRP
shrunken log2 fold change: -0.175

RRIRLRPPRLPRPRPRPGLCPRP
shrunken log2 fold change: 0.234

RRIRMRPPRLPRPRPRPDLYPRP
shrunken log2 fold change: 0.0737

RRIRDRPPRLPRPRPRPLLKPRP
shrunken log2 fold change: 0.437

RRIRFRPPRLPRPRPRPGEQPRP
shrunken log2 fold change: -0.0185

RRIRGRPPRLPRPRPRPCRMPRP
shrunken log2 fold change: 0.0426

RRIRHRPPRLPRPRPRPVVHPRP
shrunken log2 fold change: -0.115

RRIRFRPPRLPRPRPRPANKPRP
shrunken log2 fold change: -0.546

RRIRGRPPRLPRPRPRPKMSPRP
shrunken log2 fold change: 0.344

RRIRSRPPRLPRPRPRPRGKPRP
shrunken log2 fold change: 0.0832

RRIRYRPPRLPRPRPRPTWHPRP
shrunken log2 fold change: -0.349

RRIRMRPPRLPRPRPRPKGTPRP
shrunken log2 fold change: 1.69

RRIRQRPPRLPRPRPRPNIAPRP
shrunken log2 fold change: -0.0856

RRIRARPPRLPRPRPRPYLVPRP
shrunken log2 fold change: 0.0333

RRIRWRPPRLPRPRPRPHPNPRP
shrunken log2 fold change: -0.0793

RRIRERPPRLPRPRPRPCCHPRP
shrunken log2 fold change: -0.603

RRIRFRPPRLPRPRPRPCAQPRP
shrunken log2 fold change: -0.077

RRIRQRPPRLPRPRPRPKEPPRP
shrunken log2 fold change: 0.0201

RRIRPRPPRLPRPRPRPSMIPRP
shrunken log2 fold change: -0.547

RRIRKRPPRLPRPRPRPLDKPRP
shrunken log2 fold change: -0.0705

RRIRQRPPRLPRPRPRPAEFPRP
shrunken log2 fold change: -0.0119

RRIRKRPPRLPRPRPRPNDIPRP
shrunken log2 fold change: 0.0543

RRIRPRPPRLPRPRPRPETWPRP
shrunken log2 fold change: 0.1

RRIRGRPPRLPRPRPRPEIQPRP
shrunken log2 fold change: 0.769

RRIRYRPPRLPRPRPRPIAIPRP
shrunken log2 fold change: -0.217

RRIRLRPPRLPRPRPRPDAIPRP
shrunken log2 fold change: 0.0952

RRIRPRPPRLPRPRPRPKWEPRP
shrunken log2 fold change: -0.0741

RRIRGRPPRLPRPRPRPADTPRP
shrunken log2 fold change: 0.0689

RRIRARPPRLPRPRPRPWFWPRP
shrunken log2 fold change: 0.544

RRIRERPPRLPRPRPRPQHKPRP
shrunken log2 fold change: -0.467

RRIRNRPPRLPRPRPRPKMLPRP
shrunken log2 fold change: -0.043
